# B1: MUC1 5F3-hFc-AF (antibody, V domains shown)
# VH: DVQVQESGPDLVKPSQSLSLTCTVTGHSITRGSSWHWIRQFPGNKLEWMGYIHYGGGTSYNPSLKSRISITRDTSKNQFFLQLNSVTTEDTATFFCARYSYDITYRWFFDVWGAGTTVIVSS
# VL: DILLTQSPAILSVSPGERVSFSCRASQNIGTSIHWYQQRKNGSPRLLIKYASESISGIPSRFSGSGSGTDFTLSINSVESEDMADYYCQQNNNWPLTFGAGTKLELK
# B2: huBG219P-E39-AF (antibody, human IgG1, V domains shown)
# VH: EVQLLESGGGLVQPGGSLRLSCAASGFTFNDYIMSWVRQAPGKGLEWVATVSSGGDNTYYPDSVKGRFTISRDNSKNTLYLQMNSLRAEDTAVYYCTRYGGLGAMDYWGQGTLVTVSS
# VL: DIQMTQSPSSLSASVGDRVTITCRASGNIHNYLTWYQQKPGKAPKLLIYNAKTLASGVPSRFSGSGSGTDFTLTISSLQPEDFATYYCQHFWSVPYTFGQGTKLEIK
# modifications: afucosylated Fc glycan (-AF; expressed with 2F-peracetyl-fucose)
# Biological target: Human MUC1 (full length), on cells (human) (UniProt P15941)
# Sequence (P15941 24-1255 limits assumed): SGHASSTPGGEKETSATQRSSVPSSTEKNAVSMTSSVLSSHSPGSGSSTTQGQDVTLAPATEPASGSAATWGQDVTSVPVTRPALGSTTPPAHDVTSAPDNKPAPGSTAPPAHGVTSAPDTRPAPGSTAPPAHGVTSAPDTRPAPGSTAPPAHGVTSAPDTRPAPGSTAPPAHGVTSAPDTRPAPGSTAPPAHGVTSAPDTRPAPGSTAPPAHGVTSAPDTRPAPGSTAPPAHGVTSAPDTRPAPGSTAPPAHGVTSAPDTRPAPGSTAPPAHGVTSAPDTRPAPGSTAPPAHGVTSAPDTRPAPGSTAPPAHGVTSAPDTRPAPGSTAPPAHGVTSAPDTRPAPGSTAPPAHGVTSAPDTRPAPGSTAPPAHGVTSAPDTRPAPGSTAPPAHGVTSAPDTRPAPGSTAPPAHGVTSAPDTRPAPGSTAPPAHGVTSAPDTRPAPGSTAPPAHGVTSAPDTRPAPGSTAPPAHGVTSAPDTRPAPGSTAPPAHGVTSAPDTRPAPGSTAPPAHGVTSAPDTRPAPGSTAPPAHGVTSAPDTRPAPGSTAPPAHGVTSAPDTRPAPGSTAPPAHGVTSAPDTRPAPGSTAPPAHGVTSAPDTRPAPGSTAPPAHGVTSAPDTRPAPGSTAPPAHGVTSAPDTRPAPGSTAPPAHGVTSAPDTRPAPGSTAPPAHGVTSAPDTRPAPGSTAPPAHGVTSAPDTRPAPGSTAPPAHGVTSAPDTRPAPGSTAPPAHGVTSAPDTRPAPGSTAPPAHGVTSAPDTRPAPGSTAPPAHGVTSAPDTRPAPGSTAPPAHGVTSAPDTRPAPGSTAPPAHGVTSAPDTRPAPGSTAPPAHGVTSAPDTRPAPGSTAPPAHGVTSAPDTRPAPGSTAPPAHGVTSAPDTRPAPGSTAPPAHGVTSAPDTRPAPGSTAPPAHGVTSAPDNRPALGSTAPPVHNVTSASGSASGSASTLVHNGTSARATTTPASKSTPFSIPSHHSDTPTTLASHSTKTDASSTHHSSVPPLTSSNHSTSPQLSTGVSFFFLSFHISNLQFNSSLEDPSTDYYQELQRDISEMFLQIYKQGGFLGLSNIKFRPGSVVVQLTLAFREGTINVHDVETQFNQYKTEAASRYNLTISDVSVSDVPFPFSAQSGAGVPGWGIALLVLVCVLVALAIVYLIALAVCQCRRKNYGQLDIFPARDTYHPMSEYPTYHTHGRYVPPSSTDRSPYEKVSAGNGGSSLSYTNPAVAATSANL
# Test: cell-based or functional assay
binder,measurement,value
B1,"Cell lysis activity EC50, T-47D/nanoluc in human whole blood",0.464 nM
same,"Cell lysis activity Emax, T-47D/nanoluc in human whole blood",7.78%
B2,"ADCC EC50, HCC827 (MUC1 medium), NK92mi/CD16A F158 effectors, w/o huIgG",11.5 nM
same,"ADCC EC50, T-47D (MUC1 high), NK92mi/CD16A F158 effectors, w/o huIgG",1.3 nM
same,"ADCC EC50, T-47D (MUC1 high), NK92mi/CD16A V158 effectors, w/o huIgG",0.603 nM
same,"ADCC Emax, H358 (MUC1 low), NK92mi/CD16A F158 effectors, 10 mg/ml huIgG1",10.7%
same,"ADCC Emax, H358 (MUC1 low), NK92mi/CD16A F158 effectors, w/o huIgG",10.2%
same,"ADCC Emax, H358 (MUC1 low), NK92mi/CD16A V158 effectors, 10 mg/ml huIgG1",15.5%
same,"ADCC Emax, H358 (MUC1 low), NK92mi/CD16A V158 effectors, w/o huIgG",15.6%
same,"ADCC Emax, HCC827 (MUC1 medium), NK92mi/CD16A F158 effectors, 10 mg/ml huIgG1",31%
same,"ADCC Emax, HCC827 (MUC1 medium), NK92mi/CD16A F158 effectors, w/o huIgG",36.8%
same,"ADCC Emax, HCC827 (MUC1 medium), NK92mi/CD16A V158 effectors, 10 mg/ml huIgG1",26.7%
same,"ADCC Emax, HCC827 (MUC1 medium), NK92mi/CD16A V158 effectors, w/o huIgG",25%
same,"ADCC Emax, T-47D (MUC1 high), NK92mi/CD16A F158 effectors, 10 mg/ml huIgG1",25.7%
same,"ADCC Emax, T-47D (MUC1 high), NK92mi/CD16A F158 effectors, w/o huIgG",48.2%
same,"ADCC Emax, T-47D (MUC1 high), NK92mi/CD16A V158 effectors, 10 mg/ml huIgG1",19.2%
same,"ADCC Emax, T-47D (MUC1 high), NK92mi/CD16A V158 effectors, w/o huIgG",33.6%
same,"Cell lysis activity EC50, T-47D (MUC1 high) in human whole blood",1.25 nM
same,"Cell lysis activity Emax, H358 (MUC1 low) in human whole blood",8.6%
same,"Cell lysis activity Emax, HCC827 (MUC1 medium) in human whole blood",14.1%
same,"Cell lysis activity Emax, T-47D (MUC1 high) in human whole blood",20.2%
same,"Phagocytosis (ADCP) EC50, T-47D, human M2 macrophages, w/o huIgG",0.05 nM
same,"Phagocytosis (ADCP) Emax, T-47D, human M2 macrophages, 10 mg/ml huIgG1",17.6%
same,"Phagocytosis (ADCP) Emax, T-47D, human M2 macrophages, w/o huIgG",56.4%

# From patent US20250075002A1
